Target: T1, PPE19-GST-bio (biotinylated PPE19 with an N-terminal GST tag) (Mycobacterium tuberculosis H37Rv, UniProt P9WI25 1-396)
T1 construct: also called biotinylated PPE19-GST; not shown: GST, N-terminal, kept
T1 sequence: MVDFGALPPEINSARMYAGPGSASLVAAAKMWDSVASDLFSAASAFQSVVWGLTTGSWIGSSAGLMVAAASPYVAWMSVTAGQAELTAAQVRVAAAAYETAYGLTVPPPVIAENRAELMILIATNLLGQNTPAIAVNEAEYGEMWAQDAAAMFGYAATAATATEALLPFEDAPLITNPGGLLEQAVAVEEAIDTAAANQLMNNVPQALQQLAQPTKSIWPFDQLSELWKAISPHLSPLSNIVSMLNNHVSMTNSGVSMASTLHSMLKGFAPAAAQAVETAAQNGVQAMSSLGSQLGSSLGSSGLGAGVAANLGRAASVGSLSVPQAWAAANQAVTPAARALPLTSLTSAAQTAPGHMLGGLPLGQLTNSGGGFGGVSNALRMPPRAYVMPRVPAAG
Test: AlphaScreen or HTRF
Settings: both partners purified

B1: PE13-His (PE13 with a polyhistidine affinity tag) (natural protein)
chain: MSFVMAYPEMLAAAADTLQSIGATTVASNAAAAAPTTGVVPPAADEVSALTAAHFAAHAAMYQSVSARAAAIHDQFVATLASSASSYAATEVANAAAAS
binding result: binds

From paper PMC12482190, “Characterization of PPE19 as a novel mediator of Mycobacterium tuberculosis-macrophage interactions” (mSphere, 2025)
